According to patent US20060115475A1 (published 2006):

Legend:
[1] = biological target: T1, Human hexa-histidine-TLR3 (human, UniProt O15455 24-703, limits assumed); experiment: Biacore 3000, hexa-histidine-TLR3 captured on anti-His antibody, mAb in solution, 25 C, 1:1 model
T1 construct: Captured by anti-His antibody on a CM5 chip; also called TLR3 (captured on the chip surface); not shown: hexa-histidine tag

[2] = biological target: T2, soluble human TLR3 extracellular domain (human, UniProt O15455 24-703); experiment: Biacore 2000, mAb captured on protein A, TLR3 in solution, 25 C, 1:1 model
T2 construct: also called hTLR3 extracellular domain; extracellular domain of human TLR3
Experimental: Measurement of binding affinity by Biacore was performed by mAb capture and TLR3 capture techniques. MAb capture analysis was performed at 25° C. using a Biacore 2000 biosensor equipped with a CM5 chip with surfaces modified with protein A (6,000 RU) at 25° C. by standard amine coupling. Antibody was diluted to 30 nM and captured for one minute on different protein A surfaces. TLR3 was injected at 0, 0.1, 0.3, 1.0, 3.0, and 9.0 nM and associations and dissociations were monitored for 5 minutes. The protein A modified surfaces were regenerated using two 6-second pulses 100 mM phosphoric acid. Available binding data sets were fit to a 1:1 interaction model (CLAMP™). The rate constants and their ratio (KD=kd/kₐ) and the error of fit carried over the estimate of the apparent equilibrium constants were calculated.

[3] = biological target: T2, soluble human TLR3 extracellular domain; experiment: ELISA, coated soluble hTLR3 extracellular domain, HRP-labeled anti-human IgG
[4] = biological target: T2, soluble human TLR3 extracellular domain; experiment: ELISA, TLR3 binding assay as in Example 20

B1: human-adapted anti-TLR3 mAb HV1/LV1 (antibody, human IgG4, V domains shown)
VH: QVQLVQSGAEVKKPGASVKVSCKASGYTFTTYWIHWVRQAPGQRLEWMGEINPNNGRINYNEKFKTRVTITRDTSASTAYMELSSLRSEDTAVYYCARVGVMITTFPYWGQGTLVTVSS
VL: DIQMTQSPSSLSASVGDRVTITCRASGNIHNYLAWYQQKPGKAPKLLIYNAKTLADGVPSRFSGSGSGTDFTLTISSLQPEDFATYYCQHFWSTPFTFGQGTKLEIK
notes: Human IgG4 (S228P, F234A, L235A), kappa; not shown: human kappa light chain constant region
Kd [1]: 1.7 nM

B2: human-adapted anti-TLR3 mAb HV5/LV1 (antibody, human IgG4, V domains shown)
VH: QVQLVQSGAEVKKPGASVKVSCKASGYTFTTYWIHWVRQATGQGLEWMGEINPNNGRINYNEKFKTRVTMTRNTSISTAYMELSSLRSEDTAVYYCARVGVMITTFPYWGQGTLVTVSS
VL: DIQMTQSPSSLSASVGDRVTITCRASGNIHNYLAWYQQKPGKAPKLLIYNAKTLADGVPSRFSGSGSGTDFTLTISSLQPEDFATYYCQHFWSTPFTFGQGTKLEIK
notes: as for B1
Kd [2]: 2 nM | Kd [1]: 0.65 nM | EC50 [3]: 0.0155 µg/mL

B3: human-adapted anti-TLR3 mAb HV1/LV7 (antibody, human IgG4, V domains shown)
VH: QVQLVQSGAEVKKPGASVKVSCKASGYTFTTYWIHWVRQAPGQRLEWMGEINPNNGRINYNEKFKTRVTITRDTSASTAYMELSSLRSEDTAVYYCARVGVMITTFPYWGQGTLVTVSS
VL: DIQMTQSPSSLSASVGDRVTITCRASGNIHNYLAWFQQKPGKAPKSLIYNAKTLADGVPSRFSGSGSGTDFTLTISSLQPEDFATYYCQHFWSTPFTFGQGTKLEIK
notes: as for B1
Kd [2]: 7.2 nM | Kd [1]: 90 nM | EC50 [3]: 0.289 µg/mL

B4: human-adapted C1068 variant mAb HBV5 (Vh CDR3 M102I in the HV1/LV1 background) (antibody, V domains shown)
VH: QVQLVQSGAEVKKPGASVKVSCKASGYTFTTYWIHWVRQAPGQRLEWMGEINPNNGRINYNEKFKTRVTITRDTSASTAYMELSSLRSEDTAVYYCARVGVIITTFPYWGQGTLVTVSS
VL: DIQMTQSPSSLSASVGDRVTITCRASGNIHNYLAWYQQKPGKAPKLLIYNAKTLADGVPSRFSGSGSGTDFTLTISSLQPEDFATYYCQHFWSTPFTFGQGTKLEIK
notes: Made in the HV1/LV1 background; not shown: human kappa light chain constant region
EC50 [4]: 0.0747 µg/mL

B5: human-adapted anti-TLR3 mAb HV4/LV7 (antibody, human IgG4, V domains shown)
VH: QVQLVQSGAEVKKPGASVKVSCKASGYTFTTYWIHWVRQAPGQGLEWMGEINPNNGRINYNEKFKTRVTMTRDTSISTAYMELSRLRSDDTAVYYCARVGVMITTFPYWGQGTLVTVSS
VL: DIQMTQSPSSLSASVGDRVTITCRASGNIHNYLAWFQQKPGKAPKSLIYNAKTLADGVPSRFSGSGSGTDFTLTISSLQPEDFATYYCQHFWSTPFTFGQGTKLEIK
notes: as for B1
EC50 [3]: 0.183 µg/mL

B6: human-adapted anti-TLR3 mAb HV4/LV3 (antibody, human IgG4, V domains shown)
VH: QVQLVQSGAEVKKPGASVKVSCKASGYTFTTYWIHWVRQAPGQGLEWMGEINPNNGRINYNEKFKTRVTMTRDTSISTAYMELSRLRSDDTAVYYCARVGVMITTFPYWGQGTLVTVSS
VL: DIQMTQSPSSLSASVGDRVTITCRASGNIHNYLAWYQQKPGKAPKRLIYNAKTLADGVPSRFSGSGSGTEFTLTISSLQPEDFATYYCQHFWSTPFTFGQGTKLEIK
notes: as for B1
Kd [2]: 0.5 nM | Kd [1]: 3.4 nM | EC50 [3]: 0.0602 µg/mL

B7: human-adapted anti-TLR3 mAb HV1/LV5 (antibody, human IgG4, V domains shown)
VH: QVQLVQSGAEVKKPGASVKVSCKASGYTFTTYWIHWVRQAPGQRLEWMGEINPNNGRINYNEKFKTRVTITRDTSASTAYMELSSLRSEDTAVYYCARVGVMITTFPYWGQGTLVTVSS
VL: DIQMTQSPSSLSASVGDRVTITCRASGNIHNYLAWYQQKPGKVPKLLIYNAKTLADGVPSRFSGSGSGTDFTLTISSLQPEDVATYYCQHFWSTPFTFGGGTKVEIK
notes: as for B1
EC50 [3]: 0.0277 µg/mL

B8: human-adapted C1068 variant mAb HBV1 (Vh CDR1 I34M in the HV1/LV1 background) (antibody, V domains shown)
VH: QVQLVQSGAEVKKPGASVKVSCKASGYTFTTYWMHWVRQAPGQRLEWMGEINPNNGRINYNEKFKTRVTITRDTSASTAYMELSSLRSEDTAVYYCARVGVMITTFPYWGQGTLVTVSS
VL: DIQMTQSPSSLSASVGDRVTITCRASGNIHNYLAWYQQKPGKAPKLLIYNAKTLADGVPSRFSGSGSGTDFTLTISSLQPEDFATYYCQHFWSTPFTFGQGTKLEIK
notes: Made in the HV1/LV1 background and generated 'as described above'; not shown: human kappa light chain constant region
EC50 [4]: 0.017 µg/mL

B9: human-adapted anti-TLR3 mAb HV5/LV3 (antibody, human IgG4, V domains shown)
VH: QVQLVQSGAEVKKPGASVKVSCKASGYTFTTYWIHWVRQATGQGLEWMGEINPNNGRINYNEKFKTRVTMTRNTSISTAYMELSSLRSEDTAVYYCARVGVMITTFPYWGQGTLVTVSS
VL: DIQMTQSPSSLSASVGDRVTITCRASGNIHNYLAWYQQKPGKAPKRLIYNAKTLADGVPSRFSGSGSGTEFTLTISSLQPEDFATYYCQHFWSTPFTFGQGTKLEIK
notes: as for B1
EC50 [3]: 0.0289 µg/mL

B10: human-adapted C1068 variant mAb HBV4 (Vh CDR2 F64G in the HV1/LV1 background) (antibody, V domains shown)
VH: QVQLVQSGAEVKKPGASVKVSCKASGYTFTTYWIHWVRQAPGQRLEWMGEINPNNGRINYNEKGKTRVTITRDTSASTAYMELSSLRSEDTAVYYCARVGVMITTFPYWGQGTLVTVSS
VL: DIQMTQSPSSLSASVGDRVTITCRASGNIHNYLAWYQQKPGKAPKLLIYNAKTLADGVPSRFSGSGSGTDFTLTISSLQPEDFATYYCQHFWSTPFTFGQGTKLEIK
notes: as for B4
EC50 [4]: 0.0409 µg/mL

B11: human-adapted anti-TLR3 mAb HV1/LV3 (antibody, human IgG4, V domains shown)
VH: QVQLVQSGAEVKKPGASVKVSCKASGYTFTTYWIHWVRQAPGQRLEWMGEINPNNGRINYNEKFKTRVTITRDTSASTAYMELSSLRSEDTAVYYCARVGVMITTFPYWGQGTLVTVSS
VL: DIQMTQSPSSLSASVGDRVTITCRASGNIHNYLAWYQQKPGKAPKRLIYNAKTLADGVPSRFSGSGSGTEFTLTISSLQPEDFATYYCQHFWSTPFTFGQGTKLEIK
notes: as for B1
EC50 [3]: 0.118 µg/mL

B12: human-adapted anti-TLR3 mAb HV5/LV5 (antibody, human IgG4, V domains shown)
VH: QVQLVQSGAEVKKPGASVKVSCKASGYTFTTYWIHWVRQATGQGLEWMGEINPNNGRINYNEKFKTRVTMTRNTSISTAYMELSSLRSEDTAVYYCARVGVMITTFPYWGQGTLVTVSS
VL: DIQMTQSPSSLSASVGDRVTITCRASGNIHNYLAWYQQKPGKVPKLLIYNAKTLADGVPSRFSGSGSGTDFTLTISSLQPEDVATYYCQHFWSTPFTFGGGTKVEIK
notes: as for B1
Kd [2]: 1.1 nM | Kd [1]: 0.7 nM | EC50 [3]: 0.0137 µg/mL

B13: human-adapted anti-TLR3 mAb HV4/LV1 (antibody, human IgG4, V domains shown)
VH: QVQLVQSGAEVKKPGASVKVSCKASGYTFTTYWIHWVRQAPGQGLEWMGEINPNNGRINYNEKFKTRVTMTRDTSISTAYMELSRLRSDDTAVYYCARVGVMITTFPYWGQGTLVTVSS
VL: DIQMTQSPSSLSASVGDRVTITCRASGNIHNYLAWYQQKPGKAPKLLIYNAKTLADGVPSRFSGSGSGTDFTLTISSLQPEDFATYYCQHFWSTPFTFGQGTKLEIK
notes: as for B1
EC50 [3]: 0.0291 µg/mL

B14: human-adapted C1068 variant mAb HBV2 (Vh CDR2 Y60G in the HV1/LV1 background) (antibody, V domains shown)
VH: QVQLVQSGAEVKKPGASVKVSCKASGYTFTTYWIHWVRQAPGQRLEWMGEINPNNGRINGNEKFKTRVTITRDTSASTAYMELSSLRSEDTAVYYCARVGVMITTFPYWGQGTLVTVSS
VL: DIQMTQSPSSLSASVGDRVTITCRASGNIHNYLAWYQQKPGKAPKLLIYNAKTLADGVPSRFSGSGSGTDFTLTISSLQPEDFATYYCQHFWSTPFTFGQGTKLEIK
notes: as for B4
EC50 [4]: 0.0146 µg/mL

B15: human-adapted anti-TLR3 mAb HV7/LV7 (antibody, human IgG4, V domains shown)
VH: QVQLVQSGAEVKKPGSSVKVSCKASGGTFSTYWIHWVRQAPGQGLEWMGEINPNNGRINYNEKFKTRVTITADESTSTAYMELSSLRSEDTAVYYCARVGVMITTFPYWGRGTLVTVSS
VL: DIQMTQSPSSLSASVGDRVTITCRASGNIHNYLAWFQQKPGKAPKSLIYNAKTLADGVPSRFSGSGSGTDFTLTISSLQPEDFATYYCQHFWSTPFTFGQGTKLEIK
notes: as for B1
EC50 [3]: 4.26 µg/mL

B16: human-adapted C1068 variant mAb HBV3 (Vh CDR2 N61A in the HV1/LV1 background) (antibody, V domains shown)
VH: QVQLVQSGAEVKKPGASVKVSCKASGYTFTTYWIHWVRQAPGQRLEWMGEINPNNGRINYAEKFKTRVTITRDTSASTAYMELSSLRSEDTAVYYCARVGVMITTFPYWGQGTLVTVSS
VL: DIQMTQSPSSLSASVGDRVTITCRASGNIHNYLAWYQQKPGKAPKLLIYNAKTLADGVPSRFSGSGSGTDFTLTISSLQPEDFATYYCQHFWSTPFTFGQGTKLEIK
notes: as for B4
EC50 [4]: 0.048 µg/mL

B17: human-adapted anti-TLR3 mAb HV5/LV7 (antibody, human IgG4, V domains shown)
VH: QVQLVQSGAEVKKPGASVKVSCKASGYTFTTYWIHWVRQATGQGLEWMGEINPNNGRINYNEKFKTRVTMTRNTSISTAYMELSSLRSEDTAVYYCARVGVMITTFPYWGQGTLVTVSS
VL: DIQMTQSPSSLSASVGDRVTITCRASGNIHNYLAWFQQKPGKAPKSLIYNAKTLADGVPSRFSGSGSGTDFTLTISSLQPEDFATYYCQHFWSTPFTFGQGTKLEIK
notes: as for B1
EC50 [3]: 0.0786 µg/mL

B18: human-adapted anti-TLR3 mAb HV4/LV5 (antibody, human IgG4, V domains shown)
VH: QVQLVQSGAEVKKPGASVKVSCKASGYTFTTYWIHWVRQAPGQGLEWMGEINPNNGRINYNEKFKTRVTMTRDTSISTAYMELSRLRSDDTAVYYCARVGVMITTFPYWGQGTLVTVSS
VL: DIQMTQSPSSLSASVGDRVTITCRASGNIHNYLAWYQQKPGKVPKLLIYNAKTLADGVPSRFSGSGSGTDFTLTISSLQPEDVATYYCQHFWSTPFTFGGGTKVEIK
notes: as for B1
EC50 [3]: 0.0187 µg/mL

B19: human-adapted anti-TLR3 mAb HV7/LV1 (antibody, human IgG4, V domains shown)
VH: QVQLVQSGAEVKKPGSSVKVSCKASGGTFSTYWIHWVRQAPGQGLEWMGEINPNNGRINYNEKFKTRVTITADESTSTAYMELSSLRSEDTAVYYCARVGVMITTFPYWGRGTLVTVSS
VL: DIQMTQSPSSLSASVGDRVTITCRASGNIHNYLAWYQQKPGKAPKLLIYNAKTLADGVPSRFSGSGSGTDFTLTISSLQPEDFATYYCQHFWSTPFTFGQGTKLEIK
notes: as for B1
EC50 [3]: 1.47 µg/mL

B20: human-adapted anti-TLR3 mAb HV7/LV5 (antibody, human IgG4, V domains shown)
VH: QVQLVQSGAEVKKPGSSVKVSCKASGGTFSTYWIHWVRQAPGQGLEWMGEINPNNGRINYNEKFKTRVTITADESTSTAYMELSSLRSEDTAVYYCARVGVMITTFPYWGRGTLVTVSS
VL: DIQMTQSPSSLSASVGDRVTITCRASGNIHNYLAWYQQKPGKVPKLLIYNAKTLADGVPSRFSGSGSGTDFTLTISSLQPEDVATYYCQHFWSTPFTFGGGTKVEIK
notes: as for B1
EC50 [3]: 1.82 µg/mL
